The values that follow are results of earlier work, collected in publication PMC4944212.

What is called pKd is −log10 of the Kd, conventionally taken in molar units.

pKd: −log10 of the molar value. Read-outs that look alike come from different tables or passages of the source.

The target in data set [1] is SosCat SosCat (Homo sapiens) (UniProt Q07889).
Data set [2] shares this target. The data set is described as follows: fluorescence titration.
For data set [3], the target named is SosCat SosCat catalytic site (Homo sapiens) (UniProt Q07889).

H-Ras (from UniProt P01112): the results for the pKd in data set [1], in data set [2] and in data set [3] were 4.27, 5.30 and 4.68, respectively.
